Source: patent US20170226216A1

Target: recombinant human BCMA protein conjugated to IgG1 Fc-PE (human) (UniProt Q02223)
Experiment: flow cytometry, CAR T cells stained with BCMA-IgG1 Fc-PE

Chain of UniProt Q02223 (Q02223 1-54 limits assumed): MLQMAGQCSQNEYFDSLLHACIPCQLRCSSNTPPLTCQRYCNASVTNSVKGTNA

- T cells stained with BCMA-IgG1 Fc-PE (CAR surface expression), Donor 1: 86.2
B1: humanized anti-BCMA-10.2 CAR (protein)
chain: DIVLTQSPASLAVSLGERATINCRASESVSVIGAHLIHWYQQKPGQPPKLLIYLASNLETGVPARFSGSGSGTDFTLTISSLQAEDAAIYYCLQSRIFPRTFGQGTKLEIKGSTSGSGKPGSGEGSTKGQVQLVQSGSELKKPGASVKVSCKASGYTFTDYSINWVRQAPGQGLEWMGWINTETREPAYAYDFRGRFVFSLDTSVSTAYLQISSLKAEDTAVYYCARDYSYAMDYWGQGTLVTVSSAAADTGLYICKVELMYPPPYYLGIGNGTQIYVIDPEPCPDSDFLLWILAAVSSGLFFYSFLLTAVSKRGRKKLLYIFKQPFMRPVQTTQEEDGCSCRFPEEEEGGCELRVKFSRSADAPAYQQGQNQLYNELNLGRREEYDVLDKRRGRDPEMGGKPRRKNPQEGLYNELQKDKMAEAYSEIGMKGERRRGKGHDGLYQGLSTATKDTYDALHMQALPPR
